Source: patent US20120022128

Assays:
recombinant PKIB = tested on: T1, recombinant PKIB
T1 sequence: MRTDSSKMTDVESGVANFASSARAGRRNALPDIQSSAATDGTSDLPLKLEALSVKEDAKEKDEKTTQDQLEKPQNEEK

## recombinant PKA-C kinase
Recombinant Akt
  phosphorylation of Akt-Ser473, in vitro kinase assay with recombinant proteins (western blot with anti-phospho-Akt (Ser473) antibody): phosphorylated Ser473-specific antibody detected phosphorylated Akt when PKA-C kinase reacted with recombinant Akt
Recombinant PKIB
  phosphorylation of Akt-Ser473 by PKA-C, in vitro kinase assay with recombinant proteins: the phosphorylation level of Akt (Ser473) was clearly enhanced by addition of PKIB
